According to patent US20230391872A1 (ANAPTYSBIO, published 2023):

Key:
[1] = biological target: T1, human BTLA ECD-his (monomeric human BTLA-his) (human, UniProt Q7Z6A9 31-157); experiment: SPR (Biacore T200), antibody captured on anti-human IgG chip, monomeric BTLA-his flowed at 60, 20, 6.7 and 2.2 nM, 1:1 binding model, 25 C [upper right panel (Hu BTLA]
T1 construct: extracellular domain; also called human BTLA extracellular domain
T1 sequence (looked up): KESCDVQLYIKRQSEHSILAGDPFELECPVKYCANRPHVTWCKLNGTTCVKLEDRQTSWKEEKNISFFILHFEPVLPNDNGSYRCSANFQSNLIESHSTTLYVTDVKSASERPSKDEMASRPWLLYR
Description: Surface plasmon resonance (SPR) analyses were carried out using a Biacore T200 (GE Healthcare Life Sciences). Kinetic constants were determined using a 1:1 binding model in the Biacore T200 Evaluation Software to calculate on- and off-rates (kₐ and kd, respectively), and dissociation constants as a measure of overall affinity (KD). Anti-human IgG (GE Healthcare Life Sciences) was immobilized on a CMS chip using EDC-activated amine coupling chemistry (420 seconds contact at a flow rate of 10 μl/min). Antibodies (APE10585.04 6G3 IgG1 and APE10840.05 6G3 IgG4), each at 0.5 μg/m1) were captured in a 60 second contact with the flow cell using a flow rate of 10 μl/min. Monomeric human BTLA-his or cynomolgus monkey BTLA-his at 60 nM, 20 nM, 6.7 nM and 2.2 nM concentrations was flowed over captured antibody (480 seconds association, 1800 seconds dissociation). Runs were at 25° C. and used buffer containing 10 mM HEPES, pH 7.6, 150 mM NaCl, 3 mM EDTA, 0.05% polysorbate 20 (HBS-EP+, pH 7.6; Teknova) for the mobile phase and all dilutions. At the end of each cycle, bound antigen was removed by regeneration with two successive exposures (60 seconds and 90 seconds) to 3 M MgCl2 (30 μl/min). Sensorgrams and binding constants corresponding to the experiment are shown in FIG. 1 (human BTLA) and FIG. 1 (cynomolgus monkey BTLA). Antibody capture levels in resonance units (RU) are listed at the right side of each panel.

[2] = biological target: T2, human BTLA on cells (stably transfected 293c18 cells; human peripheral blood T and B cells) (human, UniProt Q7Z6A9 31-289); experiment: flow cytometry (MFI DyL650) on gated CD4+ T cells of human PBMC, DyLight 650-labelled antibody, three-parameter fit [left panel (Naive CD4+ T cells]
T2 construct: whole, on cells; the cells are named under assay; also called cell surface BTLA; full-length human BTLA
Description: Human peripheral blood mononuclear cells (PBMCs) were isolated by Histopaque (Sigma-Aldrich) density-gradient centrifugation of normal donor blood obtained from the San Diego Blood Bank (San Diego, CA). PBMCs were washed and incubated at 2×10⁷ cells/ml in FACS buffer (PBS, 1% BSA, 0.02% sodium azide) with Human BD Fc Block (2.5 μg/1×10⁶ cells, BD Biosciences) and LIVE/DEAD® Fixable Yellow Dead Cell Stain (30 μl, ThermoFisher Scientific) for 10 minutes on ice. Cells were washed once in FACS buffer, resuspended in FACS buffer at 1×10⁷ cells/ml and the following phenotyping antibodies added: Alexa Fluor 488-anti-human CD3E clone SK7, Brilliant Violet 421-anti-human CD4 clone OKT4, Brilliant Violet 785-anti-human CD8 clone SK1, and Brilliant Violet 570-anti-human CD20 clone 2H7 (50 μl each; all from BioLegend, Inc.). […] Samples were washed twice in FACS buffer, resuspended in 150 μl/well FACS buffer, and analyzed for fluorescence on a NovoCyte Flow Cytometer (ACEA Biosciences, Inc.). Data were analyzed using NovoExpress Software (ACEA Biosciences, Inc.). Median fluorescence intensities of anti-BTLA or isotype staining on gated CD4⁺ T cells (FIG. 4), CD8⁺ T cells (FIG. 4), or CD20⁺ B cells (FIG. 4) were graphed and curves fit with log(agonist) vs. response (three parameters) least squares fit for EC₅₀ calculation in GraphPad Prism (GraphPad Software, Inc.).

Kd [1]: 5.35 nM
koff [1]: 0.0003 s⁻¹
kon [1]: 56200 M⁻¹ s⁻¹
EC50 [2]: 2.44 nM
B1: 6G3 IgG4 anti-BTLA antibody (APE10840 / APE12839 / APE13308) (antibody, V domains shown)
VH: QVQLVQSGAEVKKPGSSVKVSCKASGYVFSTSWMNWVRQAPGQGLEWMGRIYPGDADTNYVGKFKGRVTITADKSTTTAYMELSSLRSEDTAVYFCAKSGTFNFGNYRWYFDVWGKGTTVTVSS
VL: AIQLTQSPSSLSASVGDRVTITCRVSENIYSHLAWYQQKPGKAPKLLIYAATNLALGVPSRFSGSGSGTDYTLTISSLQPEDFATYYCQLFWGPPLTFGGGTKVEIKR
notes: Humanized antibody from a mouse hybridoma, tested as human IgG4 (detected with anti-human kappa); Some assays used labelled lots (DyLight 650, AF647, biotin, DyL488); also called 6G3 antibody; APE10840.03
